Consider six molecules from US20040198705A1, “Modulation of steroid hormone uptake” (priority 2001, published 2004).

Like-named read-outs stand apart in the source and are kept apart here.

Test [1] deals with SHBG receptors in bovine epididymis membranes permeabilized in digitonin (bovine). The experiment in a line: radioligand filter binding to digitonin-permeabilized bovine epididymis membranes, competition with unlabelled rSHBG.
For test [2] the target is unchanged. The experiment in a line: homologous competition, filter binding: 125I-rSHBG (400 pg) on 600 µg bovine epididymis membranes permeabilized in digitonin, with testosterone, 4 °C 18 h; unlabelled rSHBG varied, 125I-rSHBG as the displaced tracer.
For test [3], the target named is SHBG receptors in bovine endometrium membranes permeabilized in digitonin (bovine). The experiment in a line: homologous competition, filter binding: 125I-rSHBG (400 pg) on 600 µg bovine endometrium membranes permeabilized in digitonin, with testosterone, 4 °C 18 h; unlabelled rSHBG varied, 125I-rSHBG as the displaced tracer.
The target of test [4] is megalin expressed on Brown Norway yolk sac carcinoma cells (BN16 cells) (UniProt P98158). Description: cell-based or functional assay.
Test [5] concerns the target purified native megalin. The experiment in a line: surface plasmon resonance, native megalin immobilised (51.4 fmol/mm^2), 1 µM testosterone/SHBG complexes in flow, blank chip subtracted. (In general: SPR reads the build-up and loss of mass on a sensor chip optically.)
For test [6], the system named is SHBG receptors in bovine endometrium membranes. The experiment in a line: 125I-rSHBG binding to permeabilized endometrium membranes. Conditions: bovine endometrium membranes permeabilized in digitonin, competition with unlabelled rSHBG. How it is done: (§1) FIG. 8. 125I-rSHBG (400 pg) was incubated with 600 μg of membrane preparations from bovine epididymis (A) or endometrium (B) in the presence of the indicated concentrations of unlabelled rSHBG. Values are given as a percentage of 125I-rSHBG bound in the absence of competitor (100%). The data represent the means of four individual experiments (±S.E.M.). Where no error bar is shown, the values are smaller than the actual symbol.
(§2) To test whether recombinant SHBG (rSHBG) interacts with SHBG receptors and in particular whether rSHBG can act as an inhibitor of SHBG binding to an SHBG receptor, the binding of rSHBG to bovine epididymis and endometrium membranes permeabilized in digitonin was assayed. Binding was performed in the presence of testosterone, to achieve steroid hormone-steroid hormone binding protein complex formation.
(§3) Briefly, purified recombinant SHBG was labelled with ^125I using the Iodo-Gen™ method [specific radioactivity (13-15)×10^3 c.p.m./ng]. 400 pg of ^125I—SHBG was mixed with 600 μg of purified membranes (either bovine epididymis or bovine endometrium membranes permeabilized in digitonin) in a total volume of 200 μl of reaction buffer [10 mM Hepes, pH 7.4, 2 mM CaCl2, 1 mM MgCl2, 1% (w/v) BSA, 1 µM ZnCl2, […] testosterone and […] digitonin]. […] The filters were washed extensively with reaction buffer and the amount of bound radioactivity was determined.

Test [7] deals with SHBG receptors in bovine epididymis membranes. The experiment in a line: 125I-rSHBG binding to permeabilized epididymis membranes. How it is done:
as §1, §2, §3

For test [8], the target named is SHBG receptor. The conditions noted are these: read-out: Kd of receptor binding, cited from earlier work.

Sequence of UniProt P98158 (P98158 26-4660 limits assumed): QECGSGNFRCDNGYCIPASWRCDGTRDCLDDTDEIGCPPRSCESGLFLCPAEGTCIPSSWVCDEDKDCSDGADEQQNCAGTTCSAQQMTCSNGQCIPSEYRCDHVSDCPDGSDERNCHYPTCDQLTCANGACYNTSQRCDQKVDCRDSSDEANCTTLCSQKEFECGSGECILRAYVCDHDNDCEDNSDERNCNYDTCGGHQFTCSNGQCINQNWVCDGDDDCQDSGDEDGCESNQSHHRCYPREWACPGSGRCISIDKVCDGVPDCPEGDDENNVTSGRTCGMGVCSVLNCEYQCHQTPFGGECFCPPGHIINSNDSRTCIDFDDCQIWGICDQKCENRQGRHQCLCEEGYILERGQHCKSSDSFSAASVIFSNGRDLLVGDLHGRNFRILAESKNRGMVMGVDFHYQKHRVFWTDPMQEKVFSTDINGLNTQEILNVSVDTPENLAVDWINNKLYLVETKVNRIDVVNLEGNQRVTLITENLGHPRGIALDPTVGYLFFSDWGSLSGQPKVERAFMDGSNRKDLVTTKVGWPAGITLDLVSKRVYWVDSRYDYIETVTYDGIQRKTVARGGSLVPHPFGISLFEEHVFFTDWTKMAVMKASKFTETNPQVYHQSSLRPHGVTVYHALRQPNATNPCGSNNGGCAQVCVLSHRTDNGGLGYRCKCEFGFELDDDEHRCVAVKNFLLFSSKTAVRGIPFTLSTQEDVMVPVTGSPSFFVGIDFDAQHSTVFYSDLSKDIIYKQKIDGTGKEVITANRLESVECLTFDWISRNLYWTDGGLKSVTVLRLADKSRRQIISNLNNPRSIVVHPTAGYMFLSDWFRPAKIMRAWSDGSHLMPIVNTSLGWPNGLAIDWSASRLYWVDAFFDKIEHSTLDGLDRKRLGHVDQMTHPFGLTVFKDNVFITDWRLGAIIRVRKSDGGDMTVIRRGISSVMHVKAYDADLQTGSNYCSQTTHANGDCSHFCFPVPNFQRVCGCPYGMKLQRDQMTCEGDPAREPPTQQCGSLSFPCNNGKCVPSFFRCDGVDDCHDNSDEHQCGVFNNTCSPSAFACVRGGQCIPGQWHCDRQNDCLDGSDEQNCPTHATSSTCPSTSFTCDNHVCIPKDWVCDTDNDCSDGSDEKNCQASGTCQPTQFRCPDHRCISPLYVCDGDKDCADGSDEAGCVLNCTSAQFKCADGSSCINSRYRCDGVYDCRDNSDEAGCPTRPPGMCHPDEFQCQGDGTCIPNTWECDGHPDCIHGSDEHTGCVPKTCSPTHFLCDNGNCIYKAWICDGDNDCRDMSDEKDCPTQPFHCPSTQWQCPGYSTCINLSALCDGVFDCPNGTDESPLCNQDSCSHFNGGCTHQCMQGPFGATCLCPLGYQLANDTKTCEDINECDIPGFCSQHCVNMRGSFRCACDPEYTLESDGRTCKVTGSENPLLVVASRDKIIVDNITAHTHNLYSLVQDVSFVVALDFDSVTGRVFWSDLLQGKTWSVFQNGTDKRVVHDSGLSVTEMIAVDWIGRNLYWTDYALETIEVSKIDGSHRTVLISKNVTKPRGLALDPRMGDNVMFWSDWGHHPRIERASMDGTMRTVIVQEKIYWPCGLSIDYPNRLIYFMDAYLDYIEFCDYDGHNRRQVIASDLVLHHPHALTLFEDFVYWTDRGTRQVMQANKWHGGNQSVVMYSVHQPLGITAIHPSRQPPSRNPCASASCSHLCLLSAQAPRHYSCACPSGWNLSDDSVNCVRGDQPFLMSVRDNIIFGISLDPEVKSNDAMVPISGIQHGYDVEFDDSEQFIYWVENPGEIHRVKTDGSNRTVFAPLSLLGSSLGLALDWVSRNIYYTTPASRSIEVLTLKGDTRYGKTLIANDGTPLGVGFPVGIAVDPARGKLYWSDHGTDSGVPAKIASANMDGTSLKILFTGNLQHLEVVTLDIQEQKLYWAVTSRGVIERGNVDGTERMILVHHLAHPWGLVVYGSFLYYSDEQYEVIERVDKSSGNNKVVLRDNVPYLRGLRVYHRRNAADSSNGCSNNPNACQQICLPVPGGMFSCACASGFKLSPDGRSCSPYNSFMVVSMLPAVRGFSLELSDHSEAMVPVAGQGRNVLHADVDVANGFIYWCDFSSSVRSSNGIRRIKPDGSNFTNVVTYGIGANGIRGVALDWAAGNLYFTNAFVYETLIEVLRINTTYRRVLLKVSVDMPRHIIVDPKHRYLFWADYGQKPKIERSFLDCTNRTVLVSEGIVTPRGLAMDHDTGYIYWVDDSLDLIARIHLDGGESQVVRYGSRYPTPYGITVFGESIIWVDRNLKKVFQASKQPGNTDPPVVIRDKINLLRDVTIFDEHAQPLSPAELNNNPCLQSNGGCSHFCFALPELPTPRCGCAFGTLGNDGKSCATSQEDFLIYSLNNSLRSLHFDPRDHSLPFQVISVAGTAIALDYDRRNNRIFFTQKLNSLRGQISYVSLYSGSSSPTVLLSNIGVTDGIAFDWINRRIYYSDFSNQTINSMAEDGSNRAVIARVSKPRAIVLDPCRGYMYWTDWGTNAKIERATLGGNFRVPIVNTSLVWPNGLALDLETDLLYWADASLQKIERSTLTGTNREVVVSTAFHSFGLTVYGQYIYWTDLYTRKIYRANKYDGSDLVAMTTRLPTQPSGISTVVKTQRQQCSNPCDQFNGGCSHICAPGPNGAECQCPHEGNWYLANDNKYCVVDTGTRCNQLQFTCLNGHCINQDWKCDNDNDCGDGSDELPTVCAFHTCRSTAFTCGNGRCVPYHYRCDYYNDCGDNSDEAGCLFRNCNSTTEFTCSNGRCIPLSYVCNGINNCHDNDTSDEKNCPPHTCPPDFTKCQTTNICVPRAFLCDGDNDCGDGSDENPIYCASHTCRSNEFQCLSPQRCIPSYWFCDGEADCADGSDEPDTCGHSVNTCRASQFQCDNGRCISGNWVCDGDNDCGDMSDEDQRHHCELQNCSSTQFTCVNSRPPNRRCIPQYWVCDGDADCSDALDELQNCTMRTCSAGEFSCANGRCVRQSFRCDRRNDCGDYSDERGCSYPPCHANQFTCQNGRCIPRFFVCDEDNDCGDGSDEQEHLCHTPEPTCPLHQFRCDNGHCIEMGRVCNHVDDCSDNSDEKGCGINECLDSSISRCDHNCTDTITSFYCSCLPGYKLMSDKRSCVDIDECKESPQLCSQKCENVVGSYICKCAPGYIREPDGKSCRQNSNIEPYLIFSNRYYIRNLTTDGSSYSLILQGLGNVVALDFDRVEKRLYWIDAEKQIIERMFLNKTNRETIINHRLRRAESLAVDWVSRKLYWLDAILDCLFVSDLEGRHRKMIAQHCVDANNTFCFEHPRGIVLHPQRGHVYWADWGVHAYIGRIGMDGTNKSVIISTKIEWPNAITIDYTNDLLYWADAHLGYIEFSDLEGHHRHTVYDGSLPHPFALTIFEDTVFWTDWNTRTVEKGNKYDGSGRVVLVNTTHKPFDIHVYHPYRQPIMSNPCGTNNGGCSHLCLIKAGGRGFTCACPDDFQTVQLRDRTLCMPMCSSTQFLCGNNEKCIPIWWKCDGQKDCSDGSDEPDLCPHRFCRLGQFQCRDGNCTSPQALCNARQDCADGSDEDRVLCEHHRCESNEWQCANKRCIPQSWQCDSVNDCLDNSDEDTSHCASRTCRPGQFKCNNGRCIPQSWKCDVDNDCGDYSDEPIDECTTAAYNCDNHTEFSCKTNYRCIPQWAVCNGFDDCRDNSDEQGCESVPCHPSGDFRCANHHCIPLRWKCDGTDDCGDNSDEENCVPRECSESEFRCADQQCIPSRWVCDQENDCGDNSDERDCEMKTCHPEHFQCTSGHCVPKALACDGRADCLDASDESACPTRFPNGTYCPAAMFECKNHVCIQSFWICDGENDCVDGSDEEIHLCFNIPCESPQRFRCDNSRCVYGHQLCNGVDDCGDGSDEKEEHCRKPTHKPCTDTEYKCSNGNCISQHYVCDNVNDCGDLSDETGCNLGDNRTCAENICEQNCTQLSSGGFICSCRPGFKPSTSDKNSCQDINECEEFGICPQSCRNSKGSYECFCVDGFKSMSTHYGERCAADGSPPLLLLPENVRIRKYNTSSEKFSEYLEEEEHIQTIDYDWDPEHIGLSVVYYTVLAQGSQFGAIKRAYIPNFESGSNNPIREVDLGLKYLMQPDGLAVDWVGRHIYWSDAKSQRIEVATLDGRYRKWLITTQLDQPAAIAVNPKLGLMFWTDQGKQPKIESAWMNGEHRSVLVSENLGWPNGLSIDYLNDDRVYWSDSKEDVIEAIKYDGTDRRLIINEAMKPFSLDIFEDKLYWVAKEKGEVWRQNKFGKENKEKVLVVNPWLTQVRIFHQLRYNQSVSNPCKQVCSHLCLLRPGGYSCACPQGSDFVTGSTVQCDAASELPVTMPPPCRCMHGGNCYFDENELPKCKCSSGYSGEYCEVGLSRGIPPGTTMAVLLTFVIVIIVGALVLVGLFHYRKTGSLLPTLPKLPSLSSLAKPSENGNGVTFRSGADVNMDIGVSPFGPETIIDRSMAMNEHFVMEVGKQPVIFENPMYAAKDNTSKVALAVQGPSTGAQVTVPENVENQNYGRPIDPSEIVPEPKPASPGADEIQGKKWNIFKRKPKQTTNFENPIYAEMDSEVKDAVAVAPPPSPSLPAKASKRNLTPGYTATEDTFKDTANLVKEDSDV

One may read the Kd as the concentration at which binding is half-saturated. As to “recombinant SHBG (rSHBG), 125I-labelled, in the presence of testosterone (from UniProt P04278 30-402) (ligand)”, the Kd in test [1] amounted to 500 nM. Further, the IC50 (read off the curve) in test [2] worked out at 1000 nM; in test [3] it was 3000 nM.
Take “fusion protein of GST and the receptor-associated protein (GST-RAP)”: in test [4], the cell-associated [3H]-DHT after 4 hours at 37° C. in the presence of GST-RAP worked out at 70000 cpm and the reduction in [3H]-DHT uptake in the presence of GST-RAP was 75%.
In test [5], “testosterone/SHBG complex (sex hormone binding globulin with bound testosterone) (from UniProt P04278 30-402) (ligand)” came in with a Kd of 140 nM.
In the case of “complexes of [3H]-dihydrotestosterone (DHT) and sex hormone binding globulin (SHBG) (ligand)”, in test [4], the cell-associated [3H]-DHT after 4 hours at 37° C. in the presence of GST (control) came to 300000 cpm.

B1: rSHBG: recombinant SHBG, 125I-labelled, tested for binding to SHBG receptors (protein, UniProt P04278 30-402, looked up)
Sex hormone-binding globulin: LRPVLPTQSAHDPPAVHLSNGPGQEPIAVMTFDLTKITKTSSSFEVRTWDPEGVIFYGDTNPKDDWFMLGLRDGRPEIQLHNHWAQLTVGAGPRLDDGRWHQVEVKMEGDSVLLEVDGEEVLRLRQVSGPLTSKRHPIMRIALGGLLFPASNLRLPLVPALDGCLRRDSWLDKQAEISASAPTSLRSCDVESNPGIFLPPGTQAEFNLRDIPQPHAEPWAFSLDLGLKQAAGSGHLLALGTPENPSWLSLHLQDQKVVLSSGSGPGLDLPLVLGLPLQLKLSMSRVVLSQGSKMKALALPPLGLAPLLNLWAKPQGRLFLGALPGEDSSTSFCLNGLWAQGQRLDVDQALNRSHEIWTHSCPQSPGNGTDASH
modifications: 125I-labelled
B1: the “binding of 125I-labelled rSHBG (in words)” value is recorded as “saturable binding” in test [6] and “saturable binding” in test [7] (bovine epididymis membranes permeabilized in digitonin, competition with unlabelled rSHBG). In addition, the Kd in test [7] (permeabilized bovine epididymis membranes, in the presence of testosterone, read-out: affinity of binding (Kd)) worked out at 500 nM.

B2: SHBG: native sex hormone-binding globulin, plasma carrier of androgens and estrogens (protein, listed as Homo sapiens)
chain: MESRGPLATSRLLLLLLLLLLRHTRQGWALRPVLPTQSAHDPPAVHLSNGPGQEPIAVMTFDLTKITKTSSSFEVRTWDPEGVIFYGDTNPKDDWFMLGLRDGRPEIQLHNHWAQLTVGAGPRLDDGRWHQVEVKMEGDSVLLEVDGEEVLRLRQVSGPLTSKRHPIMRIALGGLLFPASNLRLPLVPALDGCLRRDSWLDKQAEISASAPTSLRSCDVESNPGIFLPPGTQAEFNLRDIPQPHAEPWAFSLDLGLKQAAGSGHLLALGTPENPSWLSLHLQDQKVVLSSGSGPGLDLPLVLGLPLQLKLSMSRVVLSQGSKMKALALPPLGLAPLLNLWAKPQGRLFLGALPGEDSSTSFCLNGLWAQGQRLDVDQALNRSHEIWTHSCPQSPGNGTDASH
As to B2, the Kd in test [8] (membrane suspensions) is 50 nM; in test [8] (solubilized membranes), 500 nM.
